Test results: patent US4016250A, “Method for testing for pregnancy” (Cornell Research Foundation, Inc., priority 1974, dated 1977)
Changes are numbered by the printed parent chain. One block for each molecule: values may come before it.

Experiments:
[1] = target: T1, receptor for HCG in plasma membranes from bovine corpora lutea (Bos taurus, UniProt Q28005); assay: Radioreceptorassay of HCG: competition with 125I-HCG for plasma membrane receptor; type: binding; conditions: for cross-reaction in the radioreceptorassay of HCG: highly purified preparations, 30 minutes at 37° C
T1 construct: 100 g. of tissue from approximately 25 large corpora lutea; from tissue; host or cells: bovine corpora lutea of early pregnancy (slaughterhouse), plasma membrane fraction from zonal sucrose gradient
Method: All procedures in the preparation of plasma membranes were carried out in an ice bath or at 4° C. Fresh bovine ovaries from early pregnancy (first trimester: fetus length from crown to rump up to 22 cm.) were obtained from the slaughter house and stored in liquid nitrogen until processed. In a typical experiment, 100 g. of tissue from approximately 25 large corpora lutea were cut into small pieces with a sharp steel blade and ground in 500 ml. of 10 mM. Tris-HCl buffer of pH. 7.8 containing one mM. of MgCl2, one MM. dithiothreitol, 10,000I.U. of Trasylol (FBA Pharmaceuticals) per liter and 0.25 M. sucrose. The homogenate was filtered through two layers of cheese cloth and the larger particles were reprocessed in 500 ml. of the buffer. […] The homogenate was centifuged at 650 xg. for 20 minutes in a Sorvall refrigerated centrifuge (RC B, Rotor GSA) to remove intact cells, cell debris and nuclei. The 650 × g. supernatant was again centrifuged at 13,000 g. for 20 minutes in the same centrifuge. Supernatant was this time discarded and the pellet was resuspended in 50 to 70 ml. of the Tris-HCl buffer with the aid of the Teflon-glass homogenizer. This suspension was injected in the core of a TI-14 zonal rotor (Model Beckman Spinco L3-50) spinning at 3,000 rpm. and containing 500 ml. of a linear sucrose gradient (LKB Ultrograd 11300 pump) from 30% (w/v) to 50% (w/v) sucrose and 120 ml. of cushion of 50% (w/v) sucrose (pumping rate 20 ml./min.) An overlay of 20 ml. was injected after the sample. After two hours of centrifugation at 45,000 rpm., the centrifuge was decelerated and the rotor content displaced with 55% sucrose at 20 ml./min. […]
In Table I, the incubation was performed for 30 minutes at 37° C. in a Dunaboff water bath shaker. […] The supernates were aspirated and the pellets were counted in a Packard Autogamma counter with a 51% efficiency for I^125. The standard curves and the hormonal concentration in the plasma samples were calculated by a time sharing IBM computer using logit-log transformations.

[2] = target: T2, PRL receptor sites in ovarian homogenates (Bos taurus, UniProt Q28172); assay: Specificity of 125I-hPRL binding: displacement by unlabeled hormones; design: species or system bovine
T2 construct: from tissue; host or cells: ovarian homogenate (bovine, from the preparation section)
T2 sequence (Q28172 25-581): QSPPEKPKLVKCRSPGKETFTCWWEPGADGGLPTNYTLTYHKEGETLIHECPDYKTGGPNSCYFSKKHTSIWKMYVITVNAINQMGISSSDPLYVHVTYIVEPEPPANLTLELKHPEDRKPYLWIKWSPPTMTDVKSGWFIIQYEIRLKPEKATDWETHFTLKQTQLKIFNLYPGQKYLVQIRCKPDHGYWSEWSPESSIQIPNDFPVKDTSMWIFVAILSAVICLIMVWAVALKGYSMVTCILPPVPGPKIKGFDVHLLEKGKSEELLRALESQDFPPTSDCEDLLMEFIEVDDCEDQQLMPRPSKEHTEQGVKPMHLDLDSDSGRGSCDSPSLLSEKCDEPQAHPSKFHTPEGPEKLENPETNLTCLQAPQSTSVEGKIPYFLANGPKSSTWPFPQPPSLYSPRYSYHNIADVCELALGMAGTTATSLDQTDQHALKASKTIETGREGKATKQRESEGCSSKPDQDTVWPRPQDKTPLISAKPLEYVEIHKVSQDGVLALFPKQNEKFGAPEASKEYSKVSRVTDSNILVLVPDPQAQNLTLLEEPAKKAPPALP
Method: A reaction mixture containing 100 ul of incubation buffer containing 10 IU Trasylol (FBA Pharmaceuticals, New York, New York), 50 ul of receptor preparation equivalent to 1-300 ug of protein and 100 ul of ^125 I-hPRL (SA; 50-70 uCi/ug) were incubated at 37° C. for 2 hours in the absence and in the presence of 1 ug of unlabeled bovine PRL. At the end of incubation, 1 ml of ice cold buffer was added to all tubes and tubes were centrifuged at 5,000 rpm for 20 minutes. The supernatants were aspirated. The pellets containing receptor bound hormones were counted in an Automamma counter with a 51% efficiency for ^125 I (Packard Instrument Company, Downers Grove, Illinois). Specific binding was calculated as the difference of binding in the tubes with and without unlabeled PRL.

[3] = target: T3, PRL receptor sites in plasma membrane from bovine corpora lutea (Bos taurus, UniProt Q28172); assay: Binding of 125I-hPRL to plasma membrane / ovarian homogenate (saturation, time course)
T3 construct: plasma membrane from bovine corpora lutea; from tissue; host or cells: bovine corpora lutea, plasma membranes
T3 sequence (Q28172 25-581): T2 sequence (Q28172 25-581)
Method: […] At the end of incubation, 1 ml of ice cold buffer was added to all tubes and tubes were centrifuged at 5,000 rpm for 20 minutes. The supernatants were aspirated. The pellets containing receptor bound hormones were counted in an Automamma counter with a 51% efficiency for ^125 I (Packard Instrument Company, Downers Grove, Illinois). Specific binding was calculated as the difference of binding in the tubes with and without unlabeled PRL. Specific binding of ^125 I-hPRL to plasma membrane from bovine corpora lutea was a saturable process.

T1 sequence (Q28005 27-701): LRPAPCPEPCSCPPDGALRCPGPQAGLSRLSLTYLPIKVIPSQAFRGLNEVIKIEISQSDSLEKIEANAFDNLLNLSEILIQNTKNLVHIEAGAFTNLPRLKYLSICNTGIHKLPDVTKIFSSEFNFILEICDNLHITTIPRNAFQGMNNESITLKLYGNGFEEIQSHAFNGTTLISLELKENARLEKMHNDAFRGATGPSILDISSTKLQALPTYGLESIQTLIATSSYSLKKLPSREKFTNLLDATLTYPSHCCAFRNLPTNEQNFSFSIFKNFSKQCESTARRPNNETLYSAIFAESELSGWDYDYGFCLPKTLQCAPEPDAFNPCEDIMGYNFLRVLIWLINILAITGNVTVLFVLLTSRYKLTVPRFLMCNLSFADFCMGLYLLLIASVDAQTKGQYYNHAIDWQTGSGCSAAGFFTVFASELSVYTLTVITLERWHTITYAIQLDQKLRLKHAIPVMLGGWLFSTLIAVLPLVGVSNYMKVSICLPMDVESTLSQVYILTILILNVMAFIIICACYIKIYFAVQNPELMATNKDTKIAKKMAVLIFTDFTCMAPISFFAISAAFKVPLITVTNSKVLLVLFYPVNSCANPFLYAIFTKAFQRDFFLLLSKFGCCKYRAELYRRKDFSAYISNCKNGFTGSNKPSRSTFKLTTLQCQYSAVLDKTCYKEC

B1: HPL: highly purified preparation of HPL, abbreviation not expanded in the text (protein, UniProt P0DML2 27-217, looked up)
Chorionic somatomammotropin …: VQTVPLSRLFDHAMLQAHRAHQLAIDTYQEFEETYIPKDQKYSFLHDSQTSFCFSDSIPTPSNMEETQQKSNLELLRISLLLIESWLEPVRFLRSMFANNLVYDTSDSDDYHLLKDLEEGIQTLMGRLEDGSRRTGQILKQTYSKFDTNSHNHDALLKNYGLLYCFRKDMDKVETFLRMVQCRSVEGSCGF
cross-reaction in the radioreceptorassay of HCG [1]: complete lack of cross-reaction

B2: human chorionic somatomammotropin (protein, UniProt P0DML2 27-217, looked up)
Chorionic somatomammotropin …: B1 Chorionic somatomammotropin …
displacement of 125I-hPRL bound to receptor protein ([2]; various concentrations): capable of displacing

B3: prolactin (protein, UniProt P01236 29-227, looked up)
Prolactin: LPICPGGAARCQVTLRDLFDRAVVLSHYIHNLSSEMFSEFDKRYTHGRGFITKAINSCHTSSLATPEDKEQAQQMNQKDFLSLIVSILRSWNEPLYHLVTEVRGMQEAPEAILSKAVEIEEQTKRLLEGMELIVSQVHPETKENEIYPVWSGLPSLQMADEESRLSAYYNLLHCLRRDSHKIDNYLKLLKCRIIHNNNC
cross-reaction in the radioreceptorassay of HCG (FIG. 2) ([1]; FIG. 2 legends: TSH, HGH, PRL are plasma from hypothyroid, acromegalic, postpartum lactation subjects): no cross-reaction
cross-reaction in the radioreceptorassay of HCG [1]: complete lack of cross-reaction

B4: ^125 I-hPRL: human prolactin iodinated with 125I by chloramine-T or lactoperoxidase (protein, UniProt P01236 29-227, looked up)
Prolactin: B3 Prolactin
modifications: 125I label
notes: human prolactin iodinated with 125I by chloramine-T or lactoperoxidase
fraction of 125I-hPRL bound ([3]; 100 ug of homogenate, absence of unlabeled PRL): 20-20%
time to reach binding equilibrium ([3]; 37° C): 2 h
binding ([3]; incubation): little binding

Now from value to molecule:

potency in competing with 125I-hPRL [2]: essentially of similar potency
effect on specific binding of 125I-hPRL to ovarian homogenates ([2]; 1 ug unlabeled hormone added): inhibited
B5: bovine PRL: bovine prolactin, unlabeled (protein, UniProt P01239 31-229, looked up)
Prolactin: TPVCPNGPGNCQVSLRDLFDRAVMVSHYIHDLSSEMFNEFDKRYAQGKGFITMALNSCHTSSLPTPEDKEQAQQTHHEVLMSLILGLLRSWNDPLYHLVTEVRGMKGAPDAILSRAIEIEEENKRLLEGMEMIFGQVIPGAKETEPYPVWSGLPSLQTKDEDARYSAFYNLLHCLRRDSSKIDTYLKLLNCRIIYNNNC

potency in competing with 125I-hPRL [2]: essentially of similar potency
B6: ovine PRL: ovine prolactin (protein, UniProt P01240 31-229, looked up)
Prolactin: B5 Prolactin with D31N, A108V, Y165H
